Test results taken from patent US5543312.

Target: glycophorin A from human erythrocytes (human) (UniProt P02724)

Pasteurella haemolytica A1 glycoprotease (enzyme from culture supernatant), sequence (P36175 whole entry): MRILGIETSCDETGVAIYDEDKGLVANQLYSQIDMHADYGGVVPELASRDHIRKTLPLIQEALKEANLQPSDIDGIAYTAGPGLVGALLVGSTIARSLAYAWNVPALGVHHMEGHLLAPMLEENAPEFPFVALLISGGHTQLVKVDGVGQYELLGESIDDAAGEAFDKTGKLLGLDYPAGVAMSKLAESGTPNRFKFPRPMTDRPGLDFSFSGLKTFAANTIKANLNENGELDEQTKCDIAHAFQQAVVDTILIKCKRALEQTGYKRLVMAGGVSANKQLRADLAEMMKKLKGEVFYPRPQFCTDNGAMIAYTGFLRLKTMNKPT

Work on “Pasteurella haemolytica A1 glycoprotease (enzyme from culture supernatant)” yielded a Glycoprotease Specific Activity (nmol/mg/h), cleavage of [125I]-glycophorin A of 94 nmol/mg/h.
